The source of these data is the PETadex activity labels.

Substrate in one data set: MHET
The following applies: pH 8.5; 60 °C.

Substrate in another data set: p-NP-C4
The conditions noted are these: pH 8.

Substrate in a further data set: p-NP-C14
The following applies: pH 7; 37 °C.

Substrate in the next data set: p-NP-C16
The following applies: pH 7; 37 °C.

The mark [1] stands for this setting: pH 7, 30 °C, part of the chain shown.

Positions count from the first letter of the chain named.

B1: unnamed (protein)
chain: MTHQIVTTQYGKIKGTTENGVHKWKGIPYAKPPVGQWRFKAPEPPEVWEDVLDATAYGPVCPQPSDLLSLSYAELPRQSEDCLYVNVFAPDTPSQNLPVMVWIHGGAFYLGAGSEPLYDGSKLAAQGEVIVVTLNYRLGPFGFLHMSSFDEAYSDNLGLLDQAAALKWVRENISAFGGDPNNVTVFGESAGGMSIAALLAMPAAKGLFQKAIMESGASRTMTKEQAASTAAAFLQVLGINESQMDRLHTVAAEDLLKAADQLRIAEKENIFQLFFQPALDPKTLPAEPEKAIAEGAASGIPLLIGTTRDEGYLFFTPDSDVHSQETLDAALEYLLGKPLAEKAADLYPRSLESQIHMMTDLLFWRPAVAYASAQSHYAPVWMYRFDWHPEKPPYNKAFHALELPFVFGNAEVTDEVKQLSHSIQTAWITFAKTGNPSTEAVNWPAYQEETRETLILDSKITIENDPESEKRQKLFPSKGEAALEHHHHHH
Take B1: in the data set with BHET (pH 7.5, 30 °C), the Km was 80 µM, the catalytic constant (kcat) came out at 102 s⁻¹ and the kcat/Km came out at 1.28e+06 M⁻¹ s⁻¹.

B2: unnamed (protein)
chain: MAVMTPRRERSSLLSRALQVTAAAATALVTAVSLAAPAHAANPYERGPNPTDALLEASSGPFSVSEENVSRLSASGFGGGTIYYPRENNTYGAVAISPGYTGTEASIAWLGERIASHGFVVITIDTITTLDQPDSRAEQLNAALNHMINRASSTVRSRIDSSRLAVMGHSMGGGGTLRLASQRPDLKAAIPLTPWHLNKNWSSVTVPTLIIGADLDTIAPVATHAKPFYNSLPSSISKAYLELDGATHFAPNIPNKIIGKYSVAWLKRFVDNDTRYTQFLCPGPRDGLFGEVEEYRSTCPF
In the case of B2, the Michaelis constant (Km) in the data set with BHET (pH 8.5, 60 °C) is 39700 µM; in the data set with MHET it was 7330 µM; with p-NP-C4 (20 °C), 312 µM; with p-NP-C4 (60 °C), 505 µM. Also, the kcat with BHET (pH 8.5, 60 °C) worked out at 26.8 s⁻¹; with MHET, 0.31 s⁻¹; with p-NP-C4 (20 °C), 304 s⁻¹; in the data set with p-NP-C4 (60 °C) it was 742 s⁻¹. Besides, the specificity constant (kcat/Km) with BHET (pH 8.5, 60 °C) stood at 674 M⁻¹ s⁻¹; with MHET it was 42.3 M⁻¹ s⁻¹; with p-NP-C4 (20 °C), 973000 M⁻¹ s⁻¹; with p-NP-C4 (60 °C) it was 1.47e+06 M⁻¹ s⁻¹.

B3: unnamed (protein)
chain: MESQVRGGTRWKRFAVVMVPSVAATAAIGVALAQGALAASFSVSGQSFKVTAQELNGTGFSQYGAIDQGYTLSGEKTAHPVAVSVFDTARIQKMCQSVVTPNIPLLGSVSLTLTAGDSADPEKQVNAKNLYIDVEDLGADAEFTNIDIGVAGKDISQGPGMKAGEVQKKQANPYGFAQQAEKAKLTDVKQTAWATTAGTFKLPGLKMKLQTGTHECY
With B3, in the data set with p-NP-C12 (pH 7, 37 °C), the Michaelis constant (Km) turned out to be 4300 µM, the catalytic constant (kcat) was determined as 1.4 s⁻¹ and the specificity constant (kcat/Km) is 326 M⁻¹ s⁻¹. Also, in the data set with p-NP-C14, the Km came out at 1100 µM, the kcat was 4.5 s⁻¹ and the kcat/Km turned out to be 4090 M⁻¹ s⁻¹. In the data set with p-NP-C16, the Michaelis-Menten constant (Km) was 2100 µM, the catalytic constant (kcat) is 2.9 s⁻¹ and the kcat/Km is 1380 M⁻¹ s⁻¹.

B4: unnamed (protein)
chain: MKEGKHFVLVHGACHGGWSWYKLKPLLEAAGHKVTALDLAASGTDLRKIEELRTLYDYTLPLMELMESLSADEKVILVGHSLGGMNLGLAMEKYPQKIYAAVFLAAFMPDSVHNSSFVLEQYNERTPAENWLDTQFLPYGSPEEPLTSMFFGPKFLAHKLYQLCSPEDLALASSLVRPSSLFMEDLSKAKYFTDERFGSVKRVYIVCTEDKGIPEEFQRWQIDNIGVTEAIEIKGADHMAMLCEPQKLCASLLEIAHKYN
As to B4, in the data set with p-NP-C2 (pH 7.2, 25 °C), the Michaelis constant (Km) came out at 1400 µM, the catalytic constant (kcat) worked out at 2 s⁻¹ and the kcat/Km was 1430 M⁻¹ s⁻¹.

B5: unnamed (protein)
chain: B4 chain with G12T, M239K
In the case of B5, in the data set with p-NP-C2 (pH 7.2, 25 °C), the Km stood at 7600 µM, the kcat was 0.025 s⁻¹ and the catalytic efficiency (kcat/Km) was 3.29 M⁻¹ s⁻¹.

B6: unnamed (protein)
chain: B4 chain with G12T
For B6, in the data set with p-NP-C2 (pH 7.2, 25 °C), the Km was 8700 µM, the kcat is 0.0283 s⁻¹ and the kcat/Km turned out to be 3.26 M⁻¹ s⁻¹.

B7: unnamed (protein)
chain: MNFPRASRLMQAAVLGGLMAVSAAATAQTNPYARGPNPTAASLEASAGPFTVRSFTVSRPSGYGAGTVYYPTNAGGTVGAIAIVPGYTARQSSIKWWGPRLASHGFVVITIDTNSTLDQPSSRSSQQMAALRQVASLNGTSSSPIYGKVDTARMGVMGWSMGGGGSLISAANNPSLKAAAPQAPWDSSTNFSSVTVPTLIFACENDSIAPVNSSALPIYDSMSRNAKQFLEINGGSHSCANSGNSNQALIGKKGVAWMKRFMDNDTRYSTFACENPNSTRVSDFRTANCS
For B7, in the data set with p-NP-C2 (setting [1]), the Km was found to be 4600 µM, the kcat came out at 27 s⁻¹ and the catalytic efficiency (kcat/Km) came to 5870 M⁻¹ s⁻¹.

B8: unnamed (protein)
chain: MFGKLPFARASLAVGALLLSAAAVAQTNPYQRGPDPTVSSLEATRGPFSTSSFTVSRPSGYGAGTVYYPTNAGGKVGAIAVVPGYTARQSSINWWGPRLASHGFVVITIDTNSTLDQPSSRSSQQMAALRQVVSLAGTSSSPIYNKVDTARLGVMGWSMGGGGSLISAKNNPSLRAAAPQAPWAQESFSSVTVPTLIVSCENDSIAPNSSHSFPFYNQMTRNKKANLVINGGSHSCANSGNSDAGLIGKYGVAWMKRFMDDDTRYSKFLCGAEHQADLSKRAVEAYKENCPY
B8: the turnover number (kcat) in the data set with BHET (48.5 °C) was 28.5 s⁻¹.

B9: unnamed (protein)
chain: MTHQIVTTQYGKIKGTTENGVHKWKGIPYAKPPVGQWRFKAPEPPEVWEDVLDATAYGPVCPQPSDLLSLSYAELPRQSEDCLYVNVFAPDTPSQNLPVMVWIHGGAFYLGAGSEPLYDGSKLAAQGEVIVVTLNYRLGPFGFLHMSSFDEAYSDNLGLLDQAAALKWVRENISAFGGDPNNVTVFGESAGGMSIAALLAMPAAKGLFQKAIMESGASRTMTKEQAASTAAAFLQVLGINESQMDRLHTVAAEDLLKAADQLRIAEKENIFQLFFQPALDPKTLPAEPEKAIAEGAASGIPLLIGTTRDEGYLFFTPDSDVHSQETLDAALEYLLGKPLAEKAADLYPRSLESQIHMMTDLLFWRPAVAYASAQSHYAPVWMYRFDWHPEKPPYNKAFHALELPFVFGNLDGLERMAKAEVTDEVKQLSHSIQTAWITFAKTGNPSTEAVNWPAYQEETRETLILDSKITIENDPESEKRQKLFPSKGEAALEHHHHHH
With B9, in the data set with BHET (pH 7.5, 30 °C), the Km was 100 µM, the kcat was 37.7 s⁻¹ and the kcat/Km came out at 377000 M⁻¹ s⁻¹.

B10: unnamed (protein)
chain: MAKEILVAYGVDIDAVAGWLGSYGGEDSPDDISRGLFAGEVGIPRLLKLFKKYHLPATWFSPGHSIETFSEQMKMIVDAGHEVGAHGYSHENPIAMTAKQEEDVLLKSVELIKDLTGKAPTGYVAPWWEFSNITNELLLKHGFKYDHSLMHNDFTPYYVRVGDSWSKIDYSLEAKDWMKPLIRGVETDLVEIPANWYLDDLPPMMFIKKSPNSFGFVSPHDIGQMWIDQFDWVYREMDYAVFSMTIHPDVSARPQVLLMHEKIIEHINKHEGVRWVTFNEIADDFLKRNPRKK
Consider B10, for which, in the data set with p-NP-C2 (pH 6, 30 °C), the Michaelis-Menten constant (Km) came to 180 µM, the turnover number (kcat) was 20.2 s⁻¹ and the kcat/Km was determined as 112000 M⁻¹ s⁻¹.

B11: unnamed (protein)
chain: MFNQIGKKSALSLMAAGSLMFSATALAIGGGGSGGGNNGGGGGCEADCGYERGPDPSVSLLEASTGPFSVRTSNVSSSVRGFGGGTIHYPTNTTGTMAAIVVIPGFVSPESSIAWWGPKLASHGFVVMTIGTNSGFDQPASRASQLNNALDYLIEQNGSSRSPINGMIDTDRLGVMGWSMGGGGTLRVATEGRVSAAIPLAPWDSSSSQFRSIDTPTLIFACENDSTAPVRSHADPFYDAIPDSTAKAFVELDGGGHTCANGSSGFGGSYNDVLSRLGVSWMKLHLDKDQRYNQFVCGPNHESDRSISEYRGTCPY
For B11, in the data set with p-NP-C2 (20 °C), the Km was determined as 2100 µM, the kcat worked out at 4.74 s⁻¹ and the specificity constant (kcat/Km) was determined as 2260 M⁻¹ s⁻¹.

B12: unnamed (protein)
chain: MERTVVETRYGRLRGGTNESVFVWKGIPYAKAPVGERRFLPPEPPDAWDGVREAAAFGPVVMQPSDPIFSGLLGRMSEAPSEDGLYLNIWSPAADGKKRPVLFWIHGGAFLFGSGSSPWYDGTAFAKHGDVVVVTINYRMNVFGFLHLGDLFGEAYAQAGNLGILDQVAALRWVKENIEAFGGDPDNITIFGESAGAASVGVLLSLSEASGLFRRAILQSGSGALLLRSPKTAMAMTERILERAGIRPGDRGRLLSIPSEELLRSALSLGPGIMYGPVVDGRVLRRHPIEALCDGAASGIPILIGVTKDEYNLFTLTDPSWTKLGEKELLDRINREVGPVPEAAIRYYAETAEPSAPDWQTWLRIMTYRVFVEGMLRTADAQAAHGADVYMYRFDYETPVFGGQLKACHALELPFVFHNLHQPGVANFVGNRPEREAIANEMHYAWLSFARTGDPNGDHLPEAWPAYTSERKAAFVFSAASHVEDDPFGRERAAWMTRT
Take B12: in the data set with p-NP-C12 (pH 7.4, 60 °C), the Michaelis constant (Km) is 22800 µM, the kcat came out at 0.993 s⁻¹ and the kcat/Km was found to be 43.7 M⁻¹ s⁻¹.

What is called Km is the substrate concentration at which the rate is half of its maximum. As a reminder, the kcat is the number of substrate molecules converted per active site and unit of time at saturation. Usually kcat/Km stands for the turnover number divided by the Michaelis constant.
